Drawing on the FLAb antibody collection (doi:10.7554/elife.23156), this text covers Kd and yeast surface expression for 58 variants.

The term Kd denotes the concentration at which binding is half-saturated.

The labels stand for the following.
B1: scFv; the commonest letter at each place (parent)
chain 1: EVKLDETGGGLVQPGRPMKLSCVASGFTFSDYWMNWVRQSPEKGLEWVAQIRNKPYNYETYYSDSVKGRFTISRDDSKSSVYLQMNNLRVEDMGIYYCTGSYYGMDYWGQGTSVTVS
chain 2: DVVMTQTPLSLPVSLGDQASISCRSSQSLVHSNGNTYLRWYLQKPGQSPKVLIYKVSNRFSGVPDRFSGSGSGTDFTLKISRVEAEDLGVYFCSQSTHVPWTFGGGTKLEIK

In series [1] the parent is B1. As to the kind of experiment: Kd (Tite-Seq). Conditions: with fluorescein; format: scFv 4-4-20, heavy + light.
The variants in series [2] derive from B1. As to the kind of experiment: yeast surface expression (ratio to wild type); higher = more expressed. The following applies: format: scFv 4-4-20, heavy + light.

As for chain 1 G100D Y107V, the Kd in series [1] was ≥ 10 µM. Moreover, the yeast surface expression in series [2] was 0.406.

For the variant chain 1 Y103C M105L, the Kd in series [1] is 0.02 µM. Further, the yeast surface expression in series [2] was determined as 0.641.

For chain 1 Y102F G104H, the Kd in series [1] was ≥ 10 µM. In addition, the yeast surface expression in series [2] was 0.927.

As for chain 1 F29E D31R, the dissociation constant Kd in series [1] was ≥ 10 µM. Further, in series [2], the yeast surface expression is 0.624.

With chain 1 Y32R N35K, in series [1], the Kd was ≥ 10 µM. For the same variant, the yeast surface expression in series [2] amounted to 1.99.

On to chain 1 F29N S30H, for which, in series [1], the Kd was ≥ 10 µM. Besides, in series [2], the yeast surface expression stood at 0.954.

In the case of chain 1 F29N S30E, in series [1], the Kd is 0.0391 µM. In addition, the yeast surface expression in series [2] worked out at 1.07.

On to chain 1 S30R W36G, for which the Kd in series [1] was ≥ 10 µM. In addition, the yeast surface expression in series [2] stood at 0.171.

Turning to chain 1 Y102K G109Y, the Kd in series [1] was ≥ 10 µM. The yeast surface expression in series [2] amounted to 0.342.

chain 1 F29Y: the Kd in series [1] turned out to be 0.000783 µM. In addition, the yeast surface expression in series [2] was determined as 0.978.

Turning to chain 1 T28Y M34L N35C, the Kd in series [1] is ≥ 10 µM. For the same variant, the yeast surface expression in series [2] stood at 0.495.

chain 1 S101D D106C W108N: in series [1], the Kd was ≥ 10 µM. Besides, the yeast surface expression in series [2] is 0.369.

chain 1 F29C D31Y: the Kd in series [1] is ≥ 10 µM. For the same variant, the yeast surface expression in series [2] was 0.522.

Consider chain 1 Y103I D106L, for which the Kd in series [1] was ≥ 10 µM. In addition, in series [2], the yeast surface expression was 0.354.

chain 1 Y32H M34H: the Kd in series [1] is ≥ 10 µM. For the same variant, in series [2], the yeast surface expression was 0.674.

Regarding chain 1 F29A W33I, the Kd in series [1] was ≥ 10 µM. Moreover, in series [2], the yeast surface expression turned out to be 0.852.

As for chain 1 Y103W Y107W, the Kd in series [1] was 0.00966 µM. For the same variant, the yeast surface expression in series [2] was determined as 0.724.

Turning to chain 1 W108E G109K, in series [1], the Kd was ≥ 10 µM. Besides, the yeast surface expression in series [2] stood at 0.403.

For chain 1 Y103P, the Kd in series [1] was ≥ 10 µM. Moreover, the yeast surface expression in series [2] was 0.791.

As to chain 1 Y103E, the Kd in series [1] was 0.0166 µM. For the same variant, the yeast surface expression in series [2] was 0.857.

With chain 1 Y103L, the Kd in series [1] was found to be 0.00708 µM. In addition, the yeast surface expression in series [2] was 1.08.

As to chain 1 S30I D31T W36P, the Kd in series [1] is ≥ 10 µM. In addition, in series [2], the yeast surface expression came to 0.928.

For chain 1 F29I Y32E, in series [1], the Kd is ≥ 10 µM. In series [2], the yeast surface expression was determined as 0.916.

Consider chain 1 T28W V37C, for which the Kd in series [1] is 0.00128 µM. The yeast surface expression in series [2] is 0.75.

As to chain 1 S101I Y102V, in series [1], the Kd was ≥ 10 µM. Besides, in series [2], the yeast surface expression stood at 0.488.

Consider chain 1 M34N, for which the dissociation constant Kd in series [1] is 2.28 µM. Also, in series [2], the yeast surface expression was 0.695.

chain 1 S101P D106G W108F: in series [1], the equilibrium dissociation constant (Kd) was ≥ 10 µM. Besides, the yeast surface expression in series [2] was 0.244.

As for chain 1 Y102H G104F, the Kd in series [1] was ≥ 10 µM. Moreover, in series [2], the yeast surface expression turned out to be 0.598.

In the case of chain 1 S101H Y102R, the Kd in series [1] is ≥ 10 µM. Moreover, the yeast surface expression in series [2] is 0.96.

With chain 1 S101E W108K, in series [1], the Kd was ≥ 10 µM. For the same variant, the yeast surface expression in series [2] came out at 0.375.

On to chain 1 G104N Y107A, for which the equilibrium dissociation constant (Kd) in series [1] was ≥ 10 µM. Further, the yeast surface expression in series [2] turned out to be 0.74.

With chain 1 F29I W33A W36Y, the Kd in series [1] is ≥ 10 µM. Moreover, the yeast surface expression in series [2] stood at 0.454.

chain 1 W33S M34T: the Kd in series [1] was ≥ 10 µM. Further, in series [2], the yeast surface expression is 0.463.

In the case of chain 1 G100P M105A, the equilibrium dissociation constant (Kd) in series [1] was ≥ 10 µM. In series [2], the yeast surface expression was determined as 0.56.

As for chain 1 T28G Y32K, the Kd in series [1] was determined as 7.33 µM. For the same variant, the yeast surface expression in series [2] worked out at 0.795.

Regarding chain 1 Y102V G104N, the Kd in series [1] was ≥ 10 µM. In addition, the yeast surface expression in series [2] is 0.817.

Turning to chain 1 D31V M34C, the Kd in series [1] is ≥ 10 µM. Besides, the yeast surface expression in series [2] came out at 0.411.

On to chain 1 W33S W36I, for which the dissociation constant Kd in series [1] was ≥ 10 µM. In addition, the yeast surface expression in series [2] was determined as 0.619.

In the case of chain 1 D31P Y32L, the Kd in series [1] was ≥ 10 µM. The yeast surface expression in series [2] was determined as 0.86.

On to chain 1 D106L G109S, for which, in series [1], the Kd is ≥ 10 µM. In addition, in series [2], the yeast surface expression is 0.464.

chain 1 S101W G109V: in series [1], the Kd was ≥ 10 µM. In addition, the yeast surface expression in series [2] was determined as 0.224.

Regarding chain 1 F29P D31A M34A, the Kd in series [1] was ≥ 10 µM. The yeast surface expression in series [2] was determined as 0.567.

In the case of chain 1 S101K Y103S, the Kd in series [1] is ≥ 10 µM. Moreover, the yeast surface expression in series [2] is 0.461.

Regarding chain 1 G100I S101G D106C, the Kd in series [1] was ≥ 10 µM. In addition, the yeast surface expression in series [2] turned out to be 0.777.

Turning to chain 1 G104A M105E, the Kd in series [1] was ≥ 10 µM. Moreover, the yeast surface expression in series [2] stood at 0.648.

Take chain 1 S101I G104Q: in series [1], the Kd was ≥ 10 µM. In series [2], the yeast surface expression was 0.397.

As for chain 1 F29R D31K, the Kd in series [1] is ≥ 10 µM. Further, in series [2], the yeast surface expression worked out at 0.343.

Turning to chain 1 G109K, the Kd in series [1] is ≥ 10 µM. Further, the yeast surface expression in series [2] was 0.229.

chain 1 G109V: the Kd in series [1] was ≥ 10 µM. In series [2], the yeast surface expression was 0.34.

For chain 1 G109D, the Kd in series [1] was found to be 3.64 µM. Also, the yeast surface expression in series [2] came to 0.573.

Regarding chain 1 G109A, in series [1], the Kd was 0.0525 µM. Also, the yeast surface expression in series [2] was determined as 0.719.

Regarding chain 1 G109W, in series [1], the Kd was ≥ 10 µM. Besides, the yeast surface expression in series [2] amounted to 0.217.

For the variant chain 1 G100P S101T, in series [1], the Kd is ≥ 10 µM. The yeast surface expression in series [2] worked out at 0.486.

For chain 1 D31R N35S V37L, the Kd in series [1] was ≥ 10 µM. In addition, the yeast surface expression in series [2] was 0.577.

chain 1 S101G W108R: the Kd in series [1] was ≥ 10 µM. Moreover, in series [2], the yeast surface expression is 0.436.

With chain 1 Y102Q D106Y, in series [1], the Kd is ≥ 10 µM. For the same variant, in series [2], the yeast surface expression worked out at 0.268.

Consider chain 1 Y103D W108R, for which, in series [1], the Kd is ≥ 10 µM. The yeast surface expression in series [2] amounted to 0.524.

On to chain 1 S101F G109S, for which the dissociation constant Kd in series [1] is ≥ 10 µM. In addition, in series [2], the yeast surface expression was 0.424.
